± gives the standard error. For part of these data: This sample holds only a part of the variants without activity.
B1: glmS ribozyme (parent)
chain: AUAAAAGCGCCAGAACUACAGAAAUGUAGUUGACGAGGAGGAGGUUUAUCGAAUUUUCGGCGGAUGCCUCCAAA

Tests used:
Conditions in all cases: with glucosamine-6-phosphate
glucosamine-6-phosphate [1] = variants of: B1; experiment: kcat; higher = faster cleavage; RNA array
Outline: (§1)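 Using a hybridised Cy3 probe at 37 °C, barcoded ribozyme variants transcribed in situ by E. coli RNA polymerase on sequenced MiSeq chips were monitored across tiles imaged over ~14 h. The flow contained glucosamine-6-phosphate from 40 μM to 10 mM in HEPES/KCl/Mg(OAc)2 buffer. Signals were normalised to baseline and to non-cleaving reference variants before per-tile medians were fit to one- or two-exponential decays to yield kobs. Weighted Michaelis–Menten fits across concentrations gave kcat and KM.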

glucosamine-6-phosphate [2] = variants of: B1; experiment: self-cleavage kobs at 40 uM GlcN6P; higher = faster cleavage; RNA array
Outline: as §1

glucosamine-6-phosphate [3] = variants of: B1; experiment: self-cleavage kobs at 160 uM GlcN6P; higher = faster cleavage; RNA array
Outline: as §1

glucosamine-6-phosphate [4] = variants of: B1; experiment: self-cleavage kobs at 640 uM GlcN6P; higher = faster cleavage; RNA array
Outline: as §1

glucosamine-6-phosphate [5] = variants of: B1; experiment: self-cleavage kobs at 2500 uM GlcN6P; higher = faster cleavage; RNA array
Outline: as §1

glucosamine-6-phosphate [6] = variants of: B1; experiment: self-cleavage kobs at 10000 uM GlcN6P; higher = faster cleavage; RNA array
Outline: as §1

glucosamine-6-phosphate [7] = variants of: B1; experiment: KM; higher = weaker cofactor use; RNA array
Outline: as §1

Variant	kcat (glucosamine-6-phosphate [1])	self-cleavage kobs at 40 uM GlcN6P (glucosamine-6-phosphate [2])	self-cleavage kobs at 160 uM GlcN6P (glucosamine-6-phosphate [3])	self-cleavage kobs at 640 uM GlcN6P (glucosamine-6-phosphate [4])	self-cleavage kobs at 2500 uM GlcN6P (glucosamine-6-phosphate [5])	self-cleavage kobs at 10000 uM GlcN6P (glucosamine-6-phosphate [6])	KM (glucosamine-6-phosphate [7])
A15U U65G	0.00187 ± 0.00077 s⁻¹	3.19e-05 ± 1.1e-05 s⁻¹	6.21e-05 ± 1e-05 s⁻¹	0.00036 ± 4.5e-05 s⁻¹	0.00056 ± 0.00017 s⁻¹	0.00139 ± 0.00025 s⁻¹	–
C16U U30A G40A	0.000118 ± 1.8e-05 s⁻¹	< 1e-05 s⁻¹	–	4.8e-05 ± 2e-05 s⁻¹	8.29e-05 ± 2.2e-05 s⁻¹	–	1030 ± 380 µM
C16A G29C	0.00401 ± 0.0015 s⁻¹	0.000114 ± 1.3e-05 s⁻¹	0.000215 ± 4.5e-05 s⁻¹	0.000949 ± 0.00011 s⁻¹	0.00217 ± 0.0003 s⁻¹	0.00391 ± 0.00075 s⁻¹	1940 ± 970 µM
C16G A64G	0.00475 ± 0.0023 s⁻¹	0.000127 ± 1.8e-05 s⁻¹	0.000468 ± 0.00021 s⁻¹	0.00103 ± 0.00014 s⁻¹	0.00156 ± 0.00036 s⁻¹	0.00584 ± 0.00071 s⁻¹	–
A15U C67A	0.00148 ± 0.00015 s⁻¹	4.29e-05 ± 1e-05 s⁻¹	0.000119 ± 1.6e-05 s⁻¹	0.000447 ± 9.2e-05 s⁻¹	0.000861 ± 0.00014 s⁻¹	0.00127 ± 0.00019 s⁻¹	1700 ± 250 µM
A15U G38U	< 1e-05 s⁻¹	< 1e-05 s⁻¹	< 1e-05 s⁻¹	–	–	–	–
G29A G66U	0.000177 ± 5.1e-05 s⁻¹	–	–	6.51e-05 ± 2e-05 s⁻¹	6.95e-05 ± 1.9e-05 s⁻¹	0.00015 ± 1.9e-05 s⁻¹	–
G29A A53C	0.000592 ± 0.0002 s⁻¹	–	9.67e-05 ± 2.5e-05 s⁻¹	0.000185 ± 5.1e-05 s⁻¹	0.00047 ± 0.00011 s⁻¹	–	–
A15U A33U	5.77e-05 ± 6.8e-06 s⁻¹	–	–	–	5.26e-05 ± 1e-05 s⁻¹	5.13e-05 ± 7.3e-06 s⁻¹	–
A15U A33G	< 1e-05 s⁻¹	–	–	–	–	< 1e-05 s⁻¹	–
C16A U69G	7.88e-05 ± 1.9e-05 s⁻¹	–	–	7.48e-05 ± 1.5e-05 s⁻¹	6.89e-05 ± 1.5e-05 s⁻¹	–	–
A15G U69G	7.83e-05 ± 1.2e-05 s⁻¹	3.29e-05 ± 1.2e-05 s⁻¹	5.34e-05 ± 2.7e-05 s⁻¹	6.2e-05 ± 1.2e-05 s⁻¹	0.00012 ± 1.7e-05 s⁻¹	7.05e-05 ± 9.2e-06 s⁻¹	–
G29A G40U	0.000248 ± 5.6e-05 s⁻¹	–	–	8.95e-05 ± 1.9e-05 s⁻¹	0.000207 ± 2.8e-05 s⁻¹	0.000182 ± 4e-05 s⁻¹	–
G29A G40A	0.000354 ± 5.1e-05 s⁻¹	–	3.78e-05 ± 1.7e-05 s⁻¹	0.000154 ± 2.9e-05 s⁻¹	0.000222 ± 3.7e-05 s⁻¹	0.000353 ± 7.2e-05 s⁻¹	1090 ± 350 µM
C16G G40A	0.000334 ± 0.00011 s⁻¹	–	–	0.000114 ± 2.6e-05 s⁻¹	0.000473 ± 0.00011 s⁻¹	0.00027 ± 5.7e-05 s⁻¹	–
C16U U55C C70U	0.000581 ± 5.6e-05 s⁻¹	–	–	0.000125 ± 2.7e-05 s⁻¹	0.000261 ± 7.6e-05 s⁻¹	0.000482 ± 9.6e-05 s⁻¹	2450 ± 440 µM

Variant	kcat (glucosamine-6-phosphate [1])	self-cleavage kobs at 40 uM GlcN6P (glucosamine-6-phosphate [2])	self-cleavage kobs at 160 uM GlcN6P (glucosamine-6-phosphate [3])	self-cleavage kobs at 640 uM GlcN6P (glucosamine-6-phosphate [4])	self-cleavage kobs at 2500 uM GlcN6P (glucosamine-6-phosphate [5])	self-cleavage kobs at 10000 uM GlcN6P (glucosamine-6-phosphate [6])	KM (glucosamine-6-phosphate [7])
A15U G32C	0.000139 ± 7.8e-06 s⁻¹	–	–	3.14e-05 ± 7.2e-06 s⁻¹	6.49e-05 ± 8.6e-06 s⁻¹	0.000112 ± 9.6e-06 s⁻¹	2550 ± 370 µM
G29A U30G	0.00554 ± 0.0022 s⁻¹	0.000159 ± 2.5e-05 s⁻¹	0.000288 ± 5.9e-05 s⁻¹	0.00125 ± 0.00029 s⁻¹	0.0021 ± 0.00068 s⁻¹	0.00513 ± 0.00085 s⁻¹	–
G29A U65A	0.000167 ± 6.7e-05 s⁻¹	–	–	0.000132 ± 3e-05 s⁻¹	0.000122 ± 2.8e-05 s⁻¹	–	–
A15U U30G	0.0605 ± 0.018 s⁻¹	0.000777 ± 7.3e-05 s⁻¹	0.00242 ± 0.00032 s⁻¹	0.00977 ± 0.0011 s⁻¹	0.0219 ± 0.0035 s⁻¹	0.0582 ± 0.012 s⁻¹	3400 ± 1200 µM
C16A A48U	< 1e-05 s⁻¹	< 1e-05 s⁻¹	< 1e-05 s⁻¹	–	–	–	163 ± 44 µM
G29A C70G	6.2e-05 ± 1.1e-05 s⁻¹	–	5.22e-05 ± 1.7e-05 s⁻¹	5.96e-05 ± 1.1e-05 s⁻¹	7.74e-05 ± 8.4e-06 s⁻¹	4.28e-05 ± 8.6e-06 s⁻¹	–
A15U C50U	2.32e-05 ± 2.6e-06 s⁻¹	–	–	–	–	–	–
C16U C61U	1.75e-05 ± 1.4e-06 s⁻¹	–	–	–	–	–	–
C16G U46A	0.000198 ± 1.7e-05 s⁻¹	–	4.2e-05 ± 2e-05 s⁻¹	9.94e-05 ± 2.2e-05 s⁻¹	0.000146 ± 2.2e-05 s⁻¹	0.000213 ± 4.4e-05 s⁻¹	676 ± 180 µM
C16A U54C	0.00231 ± 0.00079 s⁻¹	6.96e-05 ± 1.3e-05 s⁻¹	0.000102 ± 2.6e-05 s⁻¹	0.000575 ± 0.00013 s⁻¹	0.000967 ± 0.00025 s⁻¹	0.00194 ± 0.00029 s⁻¹	–
C16U U65C	0.000756 ± 0.00022 s⁻¹	–	8.27e-05 ± 1.8e-05 s⁻¹	0.000152 ± 2.2e-05 s⁻¹	0.000332 ± 6.8e-05 s⁻¹	0.000697 ± 0.00011 s⁻¹	2290 ± 1100 µM
A15U A39G	0.00892 ± 0.0027 s⁻¹	0.000203 ± 3.1e-05 s⁻¹	0.000706 ± 0.00028 s⁻¹	0.0023 ± 0.00069 s⁻¹	–	0.00943 ± 0.0017 s⁻¹	1830 ± 730 µM
A15U A39U	0.00466 ± 0.00041 s⁻¹	8.33e-05 ± 9.7e-06 s⁻¹	0.000251 ± 5.5e-05 s⁻¹	0.0011 ± 0.00013 s⁻¹	0.00233 ± 0.00043 s⁻¹	0.0038 ± 0.0004 s⁻¹	2280 ± 280 µM
C16A U57A	2.09e-05 ± 4.3e-06 s⁻¹	< 1e-05 s⁻¹	< 1e-05 s⁻¹	–	–	–	–
C16G A39C	0.000798 ± 6e-05 s⁻¹	–	4.38e-05 ± 9.6e-06 s⁻¹	0.000184 ± 2.9e-05 s⁻¹	0.000427 ± 6.6e-05 s⁻¹	0.000629 ± 7.2e-05 s⁻¹	2400 ± 310 µM

From the supplement of paper PMC7125110
